# T1: Rbfox RRM (109-208) (Homo sapiens, UniProt Q9NWB1 109-208)
# T1 sequence: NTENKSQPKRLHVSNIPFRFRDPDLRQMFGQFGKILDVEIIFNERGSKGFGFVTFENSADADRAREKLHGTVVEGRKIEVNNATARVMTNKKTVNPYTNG
# T2: Rbfox1 RRM (109-225) (Homo sapiens, UniProt Q9NWB1 109-225)
# T2 sequence: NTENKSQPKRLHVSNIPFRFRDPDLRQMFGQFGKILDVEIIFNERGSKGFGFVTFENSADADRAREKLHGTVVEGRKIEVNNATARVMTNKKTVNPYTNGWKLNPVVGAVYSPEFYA
# What was measured:
# [1] = molecular target: T1, Rbfox RRM (109-208); assay: EMSA
# [2] = molecular target: T1, Rbfox RRM (109-208); assay: NMR
# [3] = molecular target: T2, Rbfox1 RRM (109-225); assay: NMR
binder,measurement,setting,value
pre-miR-20b full-length (structured_RNA) RNA: AGUACCAAAGUGCUCAUAGUGCAGGUAGUUUUGGCAUGACUCUACUGUAGUAUGGGCACUUCCAGUACU,Kd,[1],~50 nM
GCUCAUAGUGCAGGUAGUUUUGGCAUGACUCUACUGUAGUAUGGGC (structured_RNA) [pre-miR-20b 46-nt (G7-C52)],binding result,[2],binds
"GCUCAUAGUGCAGGUAGUUUUGGCAUGACUCUACUGUAGUAUGGGC (structured_RNA, 4-thiouridine at U43 carrying spin label) [pre-miR-20b 46-nt, 4-thio-U43 spin-labeled]",binding result,[3],binds

# From PMC4872098
